Assay results from patent publication US20260125454A1.
Where two headings read alike, the source gives them in different places.

Experiments:
CGRP antigen [1] = assay: cell-based or functional assay
CGRP antigen [2] = assay: cell-based or functional assay; remark: listed apart in the source
CGRP antigen [3] = assay: cell-based or functional assay; remark: listed apart in the source
[4] = biological target: synthetic human α-CGRP polypeptide (SEQ ID NO: 97)-NH2 (human); assay: BLI (Octet), antibody on AHC2, 50 nM CGRP; association pH 5.5, dissociation pH 5.5
[5] = biological target: synthetic human α-CGRP polypeptide (SEQ ID NO: 97)-NH2 (human); assay: BLI (Octet), antibody on AHC2, 50 nM CGRP; association pH 7.4, dissociation pH 5.5
[6] = biological target: synthetic human α-CGRP polypeptide (SEQ ID NO: 97)-NH2 (human); assay: BLI (Octet), antibody on AHC2, 50 nM CGRP; association pH 7.4, dissociation pH 7.4
Biotin-huCGRPaSA (human) = assay: ELISA, supernatant; relative to chimeric C245
Sequence of Biotin-huCGRPaSA (human) (peptide, as listed by the source): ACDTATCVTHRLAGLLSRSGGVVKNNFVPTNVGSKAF

Sequence of synthetic human α-CGRP polypeptide (SEQ ID NO: 97)-NH2 (human) (peptide, as listed by the source): as above

IC50 (CGRP antigen [1]) [µg/mL]	IC50 (CGRP antigen [2]) [µg/mL]	Relative binding activity (%) vs Ref(Teva) (CGRP antigen [2]) [%]	IC50 (CGRP antigen [3]) [µg/mL]	Binding signal (nm) [4] [nm]	koff [4] [s⁻¹]	Binding signal (nm) [5] [nm]	koff [5] [s⁻¹]	Binding signal (nm) [6] [nm]	koff [6] [s⁻¹]	Relative binding activity, % (Biotin-huCGRPaSA (human)) [%]	Binder
0.0613	0.0847	100	0.0563	–	–	–	–	–	–	–	fremanezumab from Teva (antibody, INN chains, looked up, V domains shown) VH: EVQLVESGGGLVQPGGSLRLSCAASGFTFSNYWISWVRQAPGKGLEWVAEIRSESDASATHYAEAVKGRFTISRDNAKNSLYLQMNSLRAEDTAVYYCLAYFDYGLAIQNYWGQGTLVTVSS VL: EIVLTQSPATLSLSPGERATLSCKASKRVTTYVSWYQQKPGQAPRLLIYGASNRYLGIPARFSGSGSGTDFTLTISSLEPEDFAVYYCSQSYNYPYTFGQGTKLEIK
–	–	–	–	0.08	5.1e-05	0.1	< 1e-05	0.12	< 1e-05	–	Fremanezumab Analogue (antibody, INN chains, looked up, V domains shown, in-house analogue) VH: EVQLVESGGGLVQPGGSLRLSCAASGFTFSNYWISWVRQAPGKGLEWVAEIRSESDASATHYAEAVKGRFTISRDNAKNSLYLQMNSLRAEDTAVYYCLAYFDYGLAIQNYWGQGTLVTVSS VL: EIVLTQSPATLSLSPGERATLSCKASKRVTTYVSWYQQKPGQAPRLLIYGASNRYLGIPARFSGSGSGTDFTLTISSLEPEDFAVYYCSQSYNYPYTFGQGTKLEIK
–	–	–	–	0.11	0.000251	0.12	0.00871	0.14	8.36e-05	–	Galcanezumab Analogue (antibody, INN chains, looked up, V domains shown, in-house analogue) VH: QVQLVQSGAEVKKPGSSVKVSCKASGYTFGNYWMQWVRQAPGQGLEWMGAIYEGTGKTVYIQKFADRVTITADKSTSTAYMELSSLRSEDTAVYYCARLSDYVSGFGYWGQGTTVTVSS VL: DIQMTQSPSSLSASVGDRVTITCRASKDISKYLNWYQQKPGKAPKLLIYYTSGYHSGVPSRFSGSGSGTDFTLTISSLQPEDFATYYCQQGDALPPTFGGGTKVEIK
–	–	–	–	–	–	–	–	–	–	5	hu34 (antibody, V domains shown) VH: QVQLVQSGAEVKKPGASVKVSCKASGYTFIDFNMHWVRQAPGQRLEWMGYIYPYNGDVVYNQNFTNRVTLTVDTSSSTAYMELSSLRSEDTAVYYCAREGLGGYWGQGTLVTVSS VL: DIVLTQSPDSLAVSLGERATINCKASQNIDFDGYAYMNWYQHKPGQPPKVLIYSVFNLESGVPDRFSGSGSGTDFTLTISSLQAEDVAVYYCQQSHEVPYTFGQGTKLEIK
